In patent US20100330649A1:

Experiments:
[1] = target: His8-cytb5-sd (human cytochrome b5 soluble domain with N-terminal His8 tag) (UniProt P00167)
[2] = target: His8-cytb5R (soluble form of human cytochrome b5 reductase with N-terminal His8 tag) (human) (UniProt P00387); assay: cell-based or functional assay
[3] = target: His8-MBP-fl-cytb5 fusion protein

Chain of UniProt P00167 (P00167 1-97): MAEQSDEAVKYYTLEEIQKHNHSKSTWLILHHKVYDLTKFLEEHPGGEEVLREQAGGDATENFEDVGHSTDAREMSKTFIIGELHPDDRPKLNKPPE
Chain of UniProt P00387 (P00387 24-301): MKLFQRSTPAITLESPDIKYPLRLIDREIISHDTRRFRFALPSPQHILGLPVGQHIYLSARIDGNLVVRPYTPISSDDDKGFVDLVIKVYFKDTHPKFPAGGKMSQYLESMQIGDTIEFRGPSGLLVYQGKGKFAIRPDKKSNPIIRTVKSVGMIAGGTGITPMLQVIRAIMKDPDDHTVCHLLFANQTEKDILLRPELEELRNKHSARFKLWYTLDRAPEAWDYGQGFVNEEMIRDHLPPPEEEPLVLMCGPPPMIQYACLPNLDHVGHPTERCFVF

For “His8-cytb5R (soluble form of human cytochrome b5 reductase with N-terminal His8 tag)”, the Km, µM (steady-state reduction of cytb5 by His8-cytb5R with NADH) [1] was 5 µM and the Vmax, s^-1 (steady-state reduction of cytb5 by His8-cytb5R with NADH, absorbance at 413 nm) [1] was 25 s⁻¹.

With “His8-cytb5-sd (human cytochrome b5 soluble domain with N-terminal His8 tag) (from UniProt P00167 1-97)” the V/K, µM^-1 s^-1 (steady-state reduction of cytb5 by His8-cytb5R with NADH) [2] was 5 µM⁻¹ s⁻¹.

B1: tobacco etch virus (TEV) protease (protein)
chain: GESLFKGPRDYNPISSTICHLTNESDGHTTSLYGIGFGPFIITNKHLFRRNNGTLLVQSLHGVFKVKNTTTLQQHLIDGRDMIIIRMPKDFPPFPQKLKFREPQREERICLVTTNFQTKSMSSMVSDTSCTFPSSDGIFWKHWIQTKDGQCGSPLVSTRDGFIVGIHSASNFTNTNNYFTSVPKNFMELLTNQEAQQWVSGWRLNADSVLWGGHKVFMSKPEEPFQPVKEATQLMNE
For B1, the “site-specific proteolysis of the linker (SDS-PAGE)” value [3] was “a satisfactory reaction was obtained at a ratio of His8-MBP-fl-cytb5 to TEV protease of 10:1 (reaction completed in 30 min)”.
